From US8329178B2, “Antibodies against CXCR4 and methods of use thereof” (Dana-Farber Cancer Institute, Inc., dated 2012)

B1: 48-IgG1 (antibody, V domains shown)
VH: QVQLVQSGGGVVLPGRSLRLSCVASGFTFRRYGMHWVRQAPGKGLEWVSLISYDGSKTFYGESVKGRFTISRDNSKNTLYLQMNSLRAEDTAVYYCARATVTTDGYYYMDVWGKGTTVTVSS
VL: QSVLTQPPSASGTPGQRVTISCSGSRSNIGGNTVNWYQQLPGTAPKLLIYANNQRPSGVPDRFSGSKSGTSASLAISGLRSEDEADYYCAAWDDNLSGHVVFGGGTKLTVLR
B2: 33-IgG1 (antibody, V domains shown)
VH: QVTLKESGGGVVQPGRSLRLSCAASGFTFTNYGLHWVRQAPGKGLEWVAVISHDGTKKYYADSVKGRFTISRDSSENTLYLQMNSLRPEDSALYYCARDGGYCSGGRCYSYGMDVWGQGTTVTVSS
VL: QSVLTQPPSASGTPGQRVTISCSGSRSNIGSNTVNWYQQLPGTAPKLLIYTNNQRPSGVPDRFSGSKSGTSASLAITGLQAEDEADYYCLSFDSSLTSYVFGTGTKVTVLG

Biological target: CXCR2/CXCR4 chimera 4442 (human, UniProt P61073)
Experiment: FACS, 293T cells expressing CXCR4 variants

| Binder | binding to cells expressing the variant (+%) [%] |
| --- | --- |
| B1 | 91.9 |
| B2 | 99.5 |
